Kd and kon data for one substance are collected here from PMC3163529.

One may read the Kd as a measure of binding affinity in units of concentration. What is called kon is a measure of how fast the partners come together.

In the assay the target is recombinant human PKA catalytic subunit Cα2 (human) (UniProt P17612). Nature of the assay: SPR; C subunits amine-coupled to CM5 chip (about 300 RU), R subunits injected at 30 μl/min; 25°C; 20 mM MOPS pH 7, 150 mM NaCl, 1 mM ATP, 5 mM MgCl2, 50 μM EDTA, 0.005% P20; Langmuir 1:1 model; Biacore 2000 or 3000. (In SPR one partner is held on a chip, and binding of the other changes the refractive index at the surface.)

In the case of “recombinant human PKA regulatory subunit RIIβ (from UniProt P31323 1-418) (natural protein; other documents disagree on this pair)”, the Kd was 0.9 nM and the kon is 900000 M⁻¹ s⁻¹.
